Measurements taken from patent US20180119166A1.

Target: 6x-histidine-fused LOS4 (LOS4-His) (Arabidopsis) (UniProt Q93ZG7)
Experiment: cell-based or functional assay

Sequence of 6x-histidine-fused LOS4 (LOS4-His) (Arabidopsis) (Q93ZG7 other isoform, or with tags, fused parts or gaps limits assumed): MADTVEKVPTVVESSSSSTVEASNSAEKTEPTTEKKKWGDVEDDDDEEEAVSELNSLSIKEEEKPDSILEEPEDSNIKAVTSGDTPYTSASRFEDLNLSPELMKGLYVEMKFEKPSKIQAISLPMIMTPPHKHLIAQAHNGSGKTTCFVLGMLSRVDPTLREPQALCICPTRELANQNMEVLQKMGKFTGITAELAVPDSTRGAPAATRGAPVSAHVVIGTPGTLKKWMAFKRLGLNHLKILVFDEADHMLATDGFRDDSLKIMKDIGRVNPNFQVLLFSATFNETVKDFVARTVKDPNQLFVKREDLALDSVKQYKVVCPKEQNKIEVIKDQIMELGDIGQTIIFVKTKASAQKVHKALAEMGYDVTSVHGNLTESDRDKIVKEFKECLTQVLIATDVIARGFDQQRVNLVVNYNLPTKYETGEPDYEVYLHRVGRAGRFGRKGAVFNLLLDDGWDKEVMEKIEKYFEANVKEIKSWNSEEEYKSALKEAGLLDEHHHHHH

| LOS4 ATPase activity with RNA (LOS4-His and MBP-Gle1C at a ratio of 1:2) [fold] | fold decrease in LOS4-stimulating activity against MBP-Gle1C, absence of InsP6 [fold] | Substance |
| --- | --- | --- |
| 3 |  | MBP fusion protein of the carboxyl-terminal domain of Gle1 (MBP-Gle1C; amino acid residues 244-611) (from UniProt Q0WPZ7 244-611) |
|  | > 2 | MBP-Gle1C (ID) (from UniProt Q0WPZ7 244-611) |
